Reference: the supplement of paper PMC7877785
± gives the uncertainty stated by the source.

Test: self-splicing fitness, log relative to wild type (ln ratio); higher = more splicing; Tetrahymena group I intron in knt gene, E. coli kanamycin selection, DiMSum; sequences stand for … in CUCUCU…GGAGGGAAAAGUUAUCAGGCAUGCACCUGGUAGCUAGUCUUUAAACCAAUAGAUUGCAUCGGUUUAAAAGGCAAGACCGUCAAAUUGCGGGAAAGGGGUCAACAGCCGUUCAGUACCAAGUCUCAGGGGAAACUUUGAGAUGGCCUUGCAAAGGGUAUGGUAAUAAGCUGACGGACAUGGUCCUAACCACGCAGCCAAGUCCUAAGUCAACAGAUCUUCUGUUGAUAUGGAUGCAGUUCACAGACUAAAUGUCGGUCGGGGAAGAUGUAUUCUUCUCAUAAGAUAUAGUCGGACCUCUCCUUAAUGGGAGCUAGCGGAUGAAGUGAUGCAACACUGGAGCCGCUGGGAACUAAUUUGUAUGCGAAAGUAUAUUGAUUAGUUUUGGAGUACUCGUGGUCG
Summary of the method: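 DiMSum derived fitness as the error-weighted combination of fold changes across replicates, kanamycin versus no kanamycin, normalised to wild type. E. coli BL21(DE3) held the library, which randomised all eight P1ex-region intron nucleotides within the knt kanamycin-resistance gene on pET-22b(+). Six replicate transformations grew overnight at 37°C or 30°C on LB agar with or without 25 μg/mL kanamycin, also containing 100 μg/mL carbenicillin, 50 μM IPTG and 0.2% rhamnose, and pooled colonies were amplicon-sequenced on an Illumina HiSeq 2500.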

| Sequence | self-splicing fitness (ln) (30 °C) | self-splicing fitness (ln) (37 °C) |
| --- | --- | --- |
| GCAUAGCAAUAUUACGGGCA | -1.67 ± 0.14 | -0.974 ± 0.12 |
| GCAUAGCAAUAUUACGGGGC | -3.43 ± 0.23 | -2.72 ± 0.32 |
| GCAUAGCAAUAUUACGUACC | -0.706 ± 0.19 | -0.405 ± 0.26 |
| GCAUAGCAAUAUUACGUCAG | -2.47 ± 0.16 | -1.8 ± 0.23 |
| GCAUAGCAAUAUUACGUCCC | -1.38 ± 0.22 | 0.182 ± 0.21 |
| GCAUAGCAAUAUUACGUCUU | -1.46 ± 0.1 | -0.342 ± 0.11 |
| GCAUAGCAAUAUUACGUGAA | -0.877 ± 0.067 | -0.528 ± 0.07 |
| GCCAAGCAAUAUUACGAAAG | -3.63 ± 0.21 | -0.702 ± 0.2 |
| GCCAAGCAAUAUUACGAACU | -1.3 ± 0.18 | -0.873 ± 0.22 |
| GCCAAGCAAUAUUACGAAGU | -1.12 ± 0.049 | -0.235 ± 0.064 |
| GCCAAGCAAUAUUACGACCU | -1.34 ± 0.11 | -1.54 ± 0.15 |
| GCCAAGCAAUAUUACGAGAG | -2.88 ± 0.34 | -1.53 ± 0.22 |
| GCCAAGCAAUAUUACGAGCC | -3.51 ± 0.43 | -1.99 ± 0.43 |
| GCCAAGCAAUAUUACGAGUA | -3.27 ± 0.13 | -1.61 ± 0.07 |
| GCCAAGCAAUAUUACGAGUC | -1.58 ± 0.1 | -1.1 ± 0.12 |
| GCCAAGCAAUAUUACGCAAA | -1.13 ± 0.11 | -0.448 ± 0.12 |
| GCCAAGCAAUAUUACGCACA | -1.07 ± 0.14 | -0.724 ± 0.15 |
| GCCAAGCAAUAUUACGCAGA | -3.13 ± 0.16 | -2.22 ± 0.15 |
| GCCAAGCAAUAUUACGCAUC | -0.673 ± 0.082 | 0.0458 ± 0.095 |
| GCCAAGCAAUAUUACGCCAU | -3.22 ± 0.37 | -3.45 ± 0.46 |
| GCCAAGCAAUAUUACGCCGU | -2.07 ± 0.087 | -1.45 ± 0.12 |
| GCCAAGCAAUAUUACGCCUG | -4.13 ± 0.39 | -1.13 ± 0.19 |
| GCCAAGCAAUAUUACGCGAG | -2.43 ± 0.11 | -2 ± 0.17 |
| GCCAAGCAAUAUUACGCGUC | -1.31 ± 0.068 | -1.71 ± 0.088 |

| Sequence | self-splicing fitness (ln) (30 °C) | self-splicing fitness (ln) (37 °C) |
| --- | --- | --- |
| GCCAAGCAAUAUUACGGAGC | -3.32 ± 0.1 | -2.38 ± 0.12 |
| GCCAAGCAAUAUUACGGGAA | -0.356 ± 0.064 | -0.585 ± 0.079 |
| GCCAAGCAAUAUUACGGUCG | -3.19 ± 0.13 | -2.27 ± 0.17 |
| GCCAAGCAAUAUUACGGUUG | -3.23 ± 0.099 | -2.54 ± 0.14 |
| GCCAAGCAAUAUUACGUAAU | -1.11 ± 0.062 | -0.183 ± 0.074 |
| GCCAAGCAAUAUUACGUAUG | -2.94 ± 0.15 | -1 ± 0.13 |
| GCCAAGCAAUAUUACGUGAC | -1.89 ± 0.13 | -0.468 ± 0.12 |
| GCCAAGCAAUAUUACGUGCG | -2 ± 0.089 | -0.737 ± 0.1 |
| GCCAAGCAAUAUUACGUUAA | -3.54 ± 0.21 | -2.89 ± 0.17 |
| GCCCAGCAAUAUUACGAAAU | -1.7 ± 0.068 | -1.36 ± 0.089 |
| GCCCAGCAAUAUUACGAACA | -1.58 ± 0.12 | -1.46 ± 0.11 |
| GCCCAGCAAUAUUACGAACG | -1.79 ± 0.32 | -0.725 ± 0.34 |
| GCCCAGCAAUAUUACGAUUG | -2.63 ± 0.14 | -2.57 ± 0.22 |
| GCCCAGCAAUAUUACGCAAU | -1.23 ± 0.059 | -0.336 ± 0.069 |
| GCCCAGCAAUAUUACGCACC | -0.112 ± 0.075 | 0.19 ± 0.097 |
| GCCCAGCAAUAUUACGCAGG | -3.19 ± 0.13 | -2.27 ± 0.15 |
| GCCCAGCAAUAUUACGCCAG | -1.92 ± 0.13 | -2.32 ± 0.23 |
| GCCCAGCAAUAUUACGCCCA | -0.496 ± 0.15 | -1.1 ± 0.17 |
| GCCCAGCAAUAUUACGCCCG | -4 ± 0.28 | -2.36 ± 0.18 |
| GCCCAGCAAUAUUACGCGAA | -2.09 ± 0.071 | -0.554 ± 0.072 |
| GCCCAGCAAUAUUACGGAGA | -0.433 ± 0.062 | -0.0159 ± 0.072 |
| GCCCAGCAAUAUUACGGAGU | -2.57 ± 0.084 | -0.683 ± 0.085 |
| GCCCAGCAAUAUUACGGGAG | -0.834 ± 0.057 | -0.496 ± 0.067 |
| GCCCAGCAAUAUUACGGGGG | -3.34 ± 0.11 | -2.78 ± 0.15 |

| Sequence | self-splicing fitness (ln) (30 °C) | self-splicing fitness (ln) (37 °C) |
| --- | --- | --- |
| GCCCAGCAAUAUUACGGGUC | -4.06 ± 0.15 | -2.4 ± 0.16 |
| GCCCAGCAAUAUUACGGGUG | -1.58 ± 0.048 | -0.819 ± 0.054 |
| GCCCAGCAAUAUUACGGUGC | -3.13 ± 0.14 | -2.52 ± 0.18 |
| GCCCAGCAAUAUUACGGUUA | -0.529 ± 0.054 | 0.488 ± 0.062 |
| GCCCAGCAAUAUUACGUCGA | -1.5 ± 0.082 | -1.09 ± 0.086 |
| GCCCAGCAAUAUUACGUGGA | -0.734 ± 0.063 | 0.199 ± 0.076 |
| GCCCAGCAAUAUUACGUUGG | -3.22 ± 0.13 | -2.92 ± 0.15 |
| GCCCAGCAAUAUUACGUUUA | -1.7 ± 0.079 | -0.893 ± 0.078 |
| GCCGAGCAAUAUUACGAAUU | -2.59 ± 0.11 | -2.21 ± 0.15 |
| GCCGAGCAAUAUUACGACGU | -0.371 ± 0.11 | -0.741 ± 0.11 |
| GCCGAGCAAUAUUACGAGGG | -3.58 ± 0.27 | -1.91 ± 0.22 |
| GCCGAGCAAUAUUACGAGUC | -1.86 ± 0.14 | -0.892 ± 0.16 |
| GCCGAGCAAUAUUACGAGUG | -2.22 ± 0.14 | -2.16 ± 0.13 |
| GCCGAGCAAUAUUACGAUAG | -2.94 ± 0.21 | -2.13 ± 0.21 |
| GCCGAGCAAUAUUACGAUGA | -2.38 ± 0.12 | -1.28 ± 0.1 |
| GCCGAGCAAUAUUACGAUGG | -2.48 ± 0.26 | -2.96 ± 0.31 |
| GCCGAGCAAUAUUACGCAGA | -3.39 ± 0.47 | -2.39 ± 0.29 |
| GCCGAGCAAUAUUACGCAUU | -2.73 ± 0.14 | -0.759 ± 0.13 |
| GCCGAGCAAUAUUACGCGGG | -4.07 ± 0.2 | -2.3 ± 0.18 |
| GCCGAGCAAUAUUACGCUAG | -2.67 ± 0.17 | -3.17 ± 0.29 |
| GCCGAGCAAUAUUACGCUGG | – | -2.07 ± 0.33 |
| GCCGAGCAAUAUUACGGACA | -0.642 ± 0.083 | 0.233 ± 0.082 |
| GCCGAGCAAUAUUACGGAGG | -3.45 ± 0.18 | -2.1 ± 0.21 |
| GCCGAGCAAUAUUACGGCAA | -2.4 ± 0.33 | -1.91 ± 0.31 |

| Sequence | self-splicing fitness (ln) (30 °C) | self-splicing fitness (ln) (37 °C) |
| --- | --- | --- |
| GCCGAGCAAUAUUACGGGGU | -4.35 ± 0.33 | -2.56 ± 0.2 |
| GCCGAGCAAUAUUACGGGUU | -3.35 ± 0.17 | -0.886 ± 0.092 |
| GCCGAGCAAUAUUACGUCGC | -4.48 ± 0.47 | -1.88 ± 0.25 |
| GCCGAGCAAUAUUACGUCUG | -3.36 ± 0.32 | -2 ± 0.27 |
| GCCGAGCAAUAUUACGUGAC | -2.14 ± 0.15 | -1.16 ± 0.19 |
| GCCGAGCAAUAUUACGUGCA | -2.31 ± 0.25 | -2.24 ± 0.18 |
| GCCGAGCAAUAUUACGUUAC | -3.09 ± 0.21 | -2.3 ± 0.19 |
| GCCUAGCAAUAUUACGACAA | -2.19 ± 0.23 | -2.22 ± 0.32 |
| GCCUAGCAAUAUUACGACUG | -3.25 ± 0.27 | -2.97 ± 0.4 |
| GCCUAGCAAUAUUACGAGAA | – | -1.26 ± 0.4 |
| GCCUAGCAAUAUUACGAGCC | -1.8 ± 0.15 | -1.67 ± 0.23 |
| GCCUAGCAAUAUUACGAUUU | -1.98 ± 0.092 | -1.34 ± 0.097 |
| GCCUAGCAAUAUUACGCAAA | -0.846 ± 0.14 | -1.41 ± 0.16 |
| GCCUAGCAAUAUUACGCACG | -1.79 ± 0.23 | -1.43 ± 0.19 |
| GCCUAGCAAUAUUACGCAGG | -4.18 ± 0.28 | -2.44 ± 0.25 |
| GCCUAGCAAUAUUACGGACA | -1.03 ± 0.097 | -0.277 ± 0.11 |
| GCCUAGCAAUAUUACGGAGG | -2.47 ± 0.29 | -2.65 ± 0.28 |
| GCCUAGCAAUAUUACGGCCG | -3.44 ± 0.26 | -2.37 ± 0.32 |
| GCCUAGCAAUAUUACGGCGA | -2.64 ± 0.4 | -1.41 ± 0.28 |
| GCCUAGCAAUAUUACGGCGC | -0.67 ± 0.14 | 0.263 ± 0.18 |
| GCCUAGCAAUAUUACGGCGU | -0.505 ± 0.074 | -0.0919 ± 0.08 |
| GCCUAGCAAUAUUACGGCUA | -1.2 ± 0.46 | -2.49 ± 0.39 |
| GCCUAGCAAUAUUACGGGCA | -1.3 ± 0.12 | -1.61 ± 0.12 |
